This series in a line: yeast display, Sf9 membrane polyspecificity reagent, FACS + sequencing; frameworks hold sequencing errors. The essentials:
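After 36–48 hours of galactose induction, yeast (Saccharomyces cerevisiae BJ5465) displaying a synthetic nanobody library were stained at 4 °C for 1 hour with 10% biotinylated, detergent-solubilized Sf9 membrane reagent. Streptavidin microbeads enriched the stained cells before FACS sorting into low and high (top ~1%) gates on anti-HA and streptavidin fluorescence. Each clone's polyreactivity label reflects its gate of origin.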
With “QVQLVESGGGLVQAGGSLRLSCAASGRTFWRYAMGWYRQAPGKERELVATISSGGSTNYADSVKGRFTISRDNAKNTVYLQMNSLKPEDTAVYYCNAEYSYYDLLAYDYWGQGTQVTVSS”, the “polyreactivity (PSR sort gate)” value is recorded as “low polyreactivity”.
Next, “QVQHVESGGGLVQAGGSLRLSCAASGPTYKRYAMGWYRQAPGKERELVAAIRQRGGSTYYADSVKGRFTISRDNAKNTVYLQMISLKPEDTAVYYWAKRYVSNSQYEYWGQGTQVTVSS”: “high polyreactivity”.
Next, “QVQLVESGGGLVQAGGSLRLSCAASGSTFWYYAMGWYRQAPGKEREFVAAINRSGASTYYADSVKGRFTISRDNAKNTVYLEMNSLKPEDTAVYYCAAAVYLQYLDDPTYGYWGQGTQVTVSS”: “high polyreactivity”; “QVQLVESGGGLVQAGGSLRLSWAASGYTFGKNAMGWYRQAPGKERELVAAISRSGGSTFYADSVKGRFTISRDNAKNTVYLQMNSLKPEDTAVYYCAAESYGYSAPYDYWGQGTQVTVSS”: “high polyreactivity”.
Take “QVQLVESGGGLVQAGGSLRLSCAASGRIFTSYAKGWYRQAPGKERELVAAISRSGGSTYYADSVKGRFTISRDNAKNTVYLQMHSLKPEDTALYYCAKARVVAGYDYWGQGTQVTVSS”: the “polyreactivity (PSR sort gate)” value is given as “high polyreactivity”.
Regarding “QVQLVESGGGLVQAGGSLRLSCAASGSTFSPYAMGWYRQAPGKERELVANITISGGSTYYADSVKGRFTISRDNAKNTVYLQMNSLKPEDTAVYFCNADSLIRWLFTVVIFDYWGQGTQVTVSS”, the “polyreactivity (PSR sort gate)” value was “low polyreactivity”.
Next, “QVQLVESGGGLVQAGGRLRLSCAASGIIFGYYAMGWYREAPGKEREFVAAINYSGVSTYYADSVKGRLTISRDNAKNTVYLQMNSLKPEDTAVYYCAADFRIVVYGWGGSHMDYWGQGTQVTVSS”: “low polyreactivity”.
Next, “QVQLVESGGGLVQAGGSLRLSCAASGRTFAWYAMGWYRQAPGKERELVAVIRRGSGDTYYADSVKGRFTISRDNAKNTVYLQMNSLKPEDTAVYYCAAKSVAYKTRAGGVRYESWGQGTQVTVSS”: “high polyreactivity”; “QVQLVESGGGLVQAGGSLRLSCAPSGSIFDYYVRGWSRQAPGKERELVAAISWSGASTYYADSVKGRFTISRDNAKNTVYLQITSLKPEDTAVYYCAADYGVNTLIDYDYWGQGTQVTVSS”: “low polyreactivity”.
As to “QVQLVESGGGLVQAGGSLSLSCAATGTNFCHNAMGWYRPAPWKERELGAGITSVGSTYFAYSVKGRFTISRDNAKNTVYLQMNSLKPEDTAVYYSAKGYDFRRSYEYWGQGTQVNVSS”, the “polyreactivity (PSR sort gate)” value is reported as “low polyreactivity”.
Next, “QVQLVESGGGLVQAGGSLRLSCAASGYTFYIYAMGWYRQAPGKERELVATISSSGGGTYYADSVKGRFTISRDNAKNTVYLQMNSLNPEDTAVYYCNADGWYWQAQGYDYWGQGTQVTVSS”: “low polyreactivity”; “QVQLVESGGGLVQAGGSLRLSCAASGLTLAWYAMGGYRQAPGKERELVAAISWSGDSTYYADSVKGRFTISRDNAKNTVYLQMNSLKPEDTAVYYCATRVYGGYGYWGQGTQVTVSS”: “high polyreactivity”.
Next, “QVQLVESGGGLVQAGGSLRLSCAASGRIFAGYAMGWYRQAPGKERELVAAISSGGGSTYYADSVKGRFTISRDNAKNTVYLQMNSLKPEDTAVYYCARDSYPHGRARFDYWGQGTQVTVSS”: “high polyreactivity”; “QVQLVESGGGVVQAGGSLRLSCAASGITFTVNAIGWYRQAPGKDREFFAAITYSGGNTYYADSVKGRFTISRDNAKNTVYLQMNSLTPEDTAVYYCNSDSAVGIVGARFFYDYWGQGTQVTVSS”: “low polyreactivity”.
Next, “QVQLVESGGGLVQAGGSLRLSCAASGRTFYIYAMGWYRQAPGKERELVADITSGGSTYYADSVKGRFTISRDNAKNTVYLQMNSLKPEDTAVYYCAADWVTFYSYTEYDYWGQGTQVTVSS”: “low polyreactivity”.
In the case of “QVQHVESGGGLVQAGGSLRLSCAASGIIFYSYTMGWYRQAPGKDRELVAAISRNGGGTYYADSVKGRFTSSRDIAKNTGYLQMNSLKPEHTAVYYCAAGWRFGRYSGDYWGQGTQVTVSS”, the “polyreactivity (PSR sort gate)” value is listed as “high polyreactivity”.
Next, “QVQLVESGGGLVQAGGSLRLSCASSGRIFTWYAMGWYRQAPGKERELVATISSGGSTNYADSVKGRFTISRDNAKNTVYLHMNSKKPEDTAVYYCAARRFFYRYYYKSDYWGQGTQVTVSS”: “high polyreactivity”; “QVQLVESGGGLVQAGGSLRLNCAASGGIFAYNAMGWYRQAPGKEMELVAAITYGGGSTYYADSVKGRFTISRDNAKNTVYLQMNSLKPEDTAVYYCATRGHYHAFYYTYPRYDSWGQGTQVTVSS”: “low polyreactivity”.
Next, “QVQLVESGGGLVQAGGSLRLSFAASGSIFASNTMGWNSPEPGKERELVAAISSNGGSTYYADSVKGRFTISRDNAKNTFYLQMNSLKPEDTGVYYCNAELSTSELGGMYSWGQGTQVTVSS”: “low polyreactivity”; “QVQLVESGGGLVQAGGSLRLSCAASGNIFKVYVMGWYRQAPGKERELVAAISGSGGSTYYADSVKGRFTISRDNAKNTVYLQMNSLKPEDTAVYYCNKVFKVTAARSFGYWGQGTQVTVSS”: “low polyreactivity”; “QVQLVESGGGLVQAGGSLRLSCAASANTFPTNAMGWYRQAPGKEMELVATISLGAGSTHYADSVKVRFTISRDNAKNTVYLQMNSLTPEDTAVYYCAARSRRWYDYDYWGQGTQVTVSS”: “low polyreactivity”.
Take “QVQLLESGGGVVQAGGSLRLSCAASGFTFLYNTMGGYRQAPGKVRELVAAISIRGGSTYYADSVKGRFTISRDNAKNTVYLQMNSLKPEDNAVYYCAARTPTPASRSRVYYWGHGTQVTVSS”: the “polyreactivity (PSR sort gate)” value was “high polyreactivity”.
Next, “QVQLVESGGGLVQAGGSLRLSCAASGSTFSYNAMGWYRQAPGKERELVAAIRWGGGSTYYADSVKGRFTISCDNAKNTVYLQMNSLKPEDTAVYYCARYGYRRVGSRWAEFDYWGQGTQVTVSS”: “high polyreactivity”; “QVQLVESGGGLVQAGGSLRLSCAASGSTFPNYPMGWYRQAPGKERELVAAITWSGGSTDYADSVKGRFTISRDNAKNTVYLQMNSLKPEDTAVYYCNADFGYWWDGRRYDYWGQGTQVTVSS”: “low polyreactivity”; “QVQLVESGGGLVQAGGSLRLTSAGSGSTFSYYTMGWYRQAPGKERELVATIRSTGSTTYADSVKGRFTISRDNVKNTVYLQMNSLKPEDTAVYFCAARSRWGGYIHTGYDYWGQGTQVTVSS”: “low polyreactivity”.
Next, “QVQLVESGGGLVQAGGSLRLSCAASGFTFWAYAMGWYRQAPGKERELVAAISGSGGNTYYADSVKGRFTISRDNAKNTVYLQMNSLKPEDTAVYYCAVEDAGQGGDYWGQGTQVTVSS”: “low polyreactivity”; “QVQLVESGGGLVQAGGSLRLSCAASGITIYKYAMGWYRQAPGKERELVAAITRGGSTYYADSVKGRFTISRDNAKNSVYLQMNSLKPEDTAVYYCNKVYHWQTPGFGYGYWGQGTQVTVSS”: “high polyreactivity”; “QVQLVESGGGLVQAGGSLRLSCAASGSIFRFYAMGWYRQAPGQERELVAAITSGGSTNYADSVKGRFTISRDNAKNTVYLQMNSLKPEDTAVYYCAAVLVYFFIYDYWGQGTQVTVSS”: “low polyreactivity”.
Next, “QVQLQESGGGLVQAGGSLRLSCAASGSISRLDYMGWYRQASGKERELVAAIDNGSTTYYADSVKGRLTISRDNAKYTVYLQMNSLKTEDTAVYFCAAVRGRGGTHAYWGQGTQVTVSG”: “low polyreactivity”; “QVQLVESGGGLVQAGGSLRLSCAASGRILYSYAMGWYRQAPGKERELVASISLSGGRTYADSVKGRFTISRDNAKNTVYLQMNSLKPEDTAVYYCNASIRTSRYLWQFDYWGQGTQVTVSS”: “high polyreactivity”.
Regarding “QVQLVESGGGLVQAGGSLRLSCAASGSIFPGYAMGWYRQAPGKERELVAAITFSGGSTYYADSVKGRFTISRDNAKNTVYLLMISLKPEDTAVYYCAAPGWYGGYPSFYYWGQGTQVTVSS”, the “polyreactivity (PSR sort gate)” value is “low polyreactivity”.
Next, “QVQLVESGGGLVQAGGSLRISCAASGSTFSPYAMGWYRQAPRKERELFAAISASGGGTYYADSVKGRFTISRDNAKNTVYLQMNSLKPEDTAVYYCARDYGWDISKGRYGYWGQGTQVTVSS”: “low polyreactivity”; “QVQLVESGGGLVQAGGSLRLSCAASGFIFRYYAMGWYRQAPGKERELVAAIDYSGGSTNYADSVKGRFTISRDYAKNTVYLQMNSQKPEDTAVYYCNAEYTWHRGYDYWGQGTQVTVSS”: “low polyreactivity”; “QVQLVESGGGLVQAGGSLRLSCAASGSTFSINAMGWYRQAPGKERELVAAITWRGVRTYYADSVKGRFTISRDNAKNTVYLQMNSLKPEDPAVYYCAAVPATSYPRRYVYAYYYWGQGTQVTVSS”: “high polyreactivity”.
As to “QVQLVESGGGLVQAGGSLRLSCAASGNILSVNAMGWYRQAPGKERELVASIRSSTASTYYADSVKGRFTISRDNAKNTVYLQMNSLKPEDTAVYYCAARARYNRYDYWGQGTQVTVSS”, the “polyreactivity (PSR sort gate)” value is on record as “high polyreactivity”.
Next, “QVQLVESGGGLVQAGGSLRLSCAASGIIFYYYGMGWYRQAPGKEREFVAAISTSGGNTYYADSVKGRFTISRDNAKNTVYLQMNSLKPEDTAVYYCAADDWPWGDAGVDYWGQGTQVTVSS”: “low polyreactivity”.
Next, “QVHLVESGGGLVQAGVSLRLSCAASGSTFGHNAMVWYRQAPGKERELVAAISSIGGSTNYADSVKGRFTISRDNAKNTVYFQMNSLKPEDTAVYYCNAGPGLRYVSPYDYWGQGTQVTVSS”: “low polyreactivity”.
Next, “QVQLVESGGGLVQAGGSLRLSCAASGSIFNLYALGWYRKAPGKERELVAAIRWDGGSTYYADSVKGRFTISRDNAKNTVYLQMNSLKPEDTAVYYCAAETVYFRLLILDYWGQGTQVTVSS”: “high polyreactivity”; “QVQLVESGGGLVQAGGSLRLSCAASGITFYGYAMGWYRPAPGKERELVAVITSTARTNYADSVNGRFTISRDNAKNTVYLQMNSLKPEDTAVYYCAAVHSSYSFNYWGQGTQVTVSS”: “high polyreactivity”.
Regarding “QVQLVESGGGLVQAGGSLRLSCAASGRTFYGYAMGWYRQAPGKERELVAAISKTGGSTYYADSVKGRFTISRDNAKNTVYLQMNSLKPEDTAVYYCNARRIYRLEYDSWGQGTQVTVSS”, the “polyreactivity (PSR sort gate)” value was “high polyreactivity”.
Next, “QVQLVESGGGLVQAGGSLRLSCAASGSIFVSNAMGWYRQAPGKERELVAAITSSGSTDYADSVKGRFTISRDNAKNTVYLQMNSLKPDDTAVYYCAAESDHTFFLWSLNDSWGQGTQVTVSS”: “low polyreactivity”.

For the origin of these results see the nanobody polyreactivity screen of Harvey et al. (2022).
